Measurements taken from publication PMC9687583.

Biological target: T1, Human C-C motif ligand 16 (CCL16) (human), O15467
T1 chain: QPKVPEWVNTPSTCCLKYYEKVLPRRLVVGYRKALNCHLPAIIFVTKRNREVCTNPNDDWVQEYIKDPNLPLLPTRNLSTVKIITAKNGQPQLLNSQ
Test: SEC; HiLoad 26/60 Superdex 75 pg; 50 mM sodium dihydrogen phosphate, 500 mM sodium chloride, 10% (v/v) glycerol, pH 8.0; apparent mass after calibration with standard proteins in the same buffer
Settings: remark: other sources report otherwise

stoichiometry N: 2
B1: Human C-C motif ligand 16 (CCL16), O15467 24-120 (natural protein)
chain: T1 chain
modifications: here or on the partner: two intramolecular disulphide bonds (confirmed by CE-MS and electron density); two intramolecular disulphide bonds (confirmed by CE-MS and electron density)
